# Experimental data from patent US20250215467A1, “L-THREONINE TRANSALDOLASES AND USES THEREOF” (University of Delaware, priority 2022, published 2025).
# B1: TmTTA: putative TTA, SEQ ID NO: 36, Thermocladium modestius (protein, listed as Thermocladium modestius)
# chain: MREEEAIAALSKLRAIMDRHNNWRRRETINLIPSENVMSPLAEYFYLNDMMGRYAEGTIGKRYYQGVSLVDEAEQMLVDLMSSLFSSRFTDVRPISGTVANMAVYHSVAGLGEKIASLPTAAGGHISHNETGAPKAFGLRVSYLPWSQENFNVDVDAARRLIAEERPKLVLLGASLYLFPHPIKELADAAHEVGAVLMHDSAHVLGLIAGHQFPNPLELGADIMTSSTHKTFPGPQGGVIFTTREDLFKEIQRSVFPVMTSNYHLHRYASTIVTAIEMSTYGDEYAATVRSNAKALAEQLHANGLPVVAEEHGFTATHQVAMDVSKFGGGGPIAKALEDANIIVNKNMLPWDKSPVKPSGIRMGVQEMTRMGMGKGEMAAVAELIAKVVIKGVEPSKVKPEVVELRRGFTKVRYGFDLSTLGLNCPCLPLL
# B2: DbTTA: putative TTA, SEQ ID NO: 40, Deltaproteobacteria bacterium (protein, listed as Deltaproteobacteria bacterium)
# chain: LTNNRELMDRIGYNLSQGLVSSQHTASLVALFIALHEARLTGKAFAKQVVENARTLASRLAALGVPVLARSDGQFTDNHHFFINLTGVASAPHQMERLLRAHLVVQRGMPFRNVDALRVGVQEVTRRGYGPGEMAQLAEWIASIVIGGADPEVVAPAVQAMAKRFDTIYYTGETVDGKLDLPEIAAPSAKGRWVDYRHLGNDFAMDDTEFSEIRALGAAAGAFPNQTDSTGNVSLRSGARVFVSSSGSYIKHLADGQVVELDAVDPSGELIDYHGAALPSSESLMHFLVYQNVPAGAVVHTHYLLTNQEAADFDVAVIAPQEYASIALARAVAEASKRSRIVYIQKHGLVFWGTDTADCLSQVHNFIHNRPNRRAAEAVYAS
# B3: SNTTA: putative TTA, SEQ ID NO: 38, Streptomyces sp. NRRL 30471 (protein)
# chain: MTSSDDCAASRTAPVAGRAELLALLGEIEKEQRINEAAVNLVPSENRISPWAGAPLRTDFYNRYFFNDSLDPQGWQFRGGEGIGRLEKELALPALRRLGRADHVNIRPVSGMSAMLVVLLGLGGEPGDGVVCVDAETGGHYATGRQIAMLGRRPLPVRVVAGRVDLDALRTALTSCHVPLVYLDLQNSLWELDVAGVAEVIARTSPRTVLHVDCSHTLGLILGGSHKNPLDLGADTTGGSTHKTFPGPQKGVLFTRDENLSRKIRDAQFFTISSHHFAETLALALAAAEFEHFGAAYSRQVLINARAFAHRLRERGFGVVEGGPQLTDTHQVWVRLPLEESADAFSAQLASLGIRVNVQTELPDIPEPALRLGVSEITLNGGREPAMETLAEIFALVRAGEATKAVDLFQVLPHEMGEPYFFTGLPQEAGLFHG
# modifications: Streptomyces sp. NRRL 30471
# B4: StTTA: TTA, SEQ ID NO: 35, Streptomyces (multi-species), first 36 N-terminal amino acids removed (protein)
# chain: GVWAGDRVAQVLERLASDFVLDNTYREQHLSLTASENYPSKLVRMLGAGLQGGFYEFAPPYPAEAGEWAFPDSGANASLVGKLTGIGRQLFEAATFDWRPNGGSVAEQAVLLGTCGRGDGFVHFAHKDGGHFALESLAGAAGVNTYHLPMVDRTLLIDVDRLATLCAEHPEIKLVILDQSFKLRWQPLAQIRAALPEGVFLAYDASHDGALIAGGVLPQPTLLGADAVHGNTHKTIAGPQKAYIAFRDAEHPKLRAVSDWVCPQMQSNSHAELIAPMYVALSEVALYGHAYARQILANAQALAHGLHEEGVRVSGESFGFTETHQVHVVTGSAADALRLSLGELAQAGIRTTNIEVPGANGLHGLRLGVQAMTRRGLREPQMREVARLVAKVVLRRAEPAAVRAEVADLLQHHPLDQLAYSFDSYVDSPAAARLLGEVFR
# modifications: Streptomyces (multi-species)
# B5: NoTTA: putative TTA, SEQ ID NO: 39, Nocardia otitidiscaviarum (protein, listed as Nocardia otitidiscaviarum)
# chain: MNTFDILEQLARYEVGTSRRLHLIASENPLDSDTRVPYMLAGTLARYAFGEPGQPNWAWPGRETLIDLEADTAAALGALLGADHVNLRPTSGLSAMTVALSALAEHAGDRATVLSLAESDGGHGSTGFMARRFGLDWQRMPADPRTGVVDLDALARQARSARGPLVLYLDAFMARFPFDLTGIRGAVGDSALIHYDGSHPLGLIAGGRFQNPLAEGADSLGGSVHKTWPGPVGKGIIATNDSALASRFDTHAAGWISHHHPADLAALALSTAWMEQHAGDYATAVIANAVQLADELADGGLSICADDRGATASHQVWVDIAPICPAPVAAQRLYDAGIVVNAIAIPGLAEPGLRLGVQELTRWGLDRDGMTVLTWVLTQLLVHNAATAVVAPQMEALRTGLTLPEDRHGLEGFLRACDPQEVSVA
# Test system: not listed separately
# Experiment: TTA-ADH coupled assay, substrate scope of TTAs on aromatic aldehydes
# Format: biochemical
# Conditions: TTA-ADH coupled assay
# Protocol: (§1) High-throughput screening of purified TTAs was performed with a TTA-ADH coupled assay using purified TTA and commercially available alcohol dehydrogenase from S. cerevisiae purchased from MilliporeSigma. Aldehyde stocks were prepared in 50-100 mM solutions in DMSO or acetonitrile. Reaction mixtures were prepared in a 96-well plate with 100 μL of 100 mM phosphate buffer pH 7.5, 0.5 mM NADH, 0.4 mM PLP, 15 mM MgCl2, and 100 mM L-Thr with the addition of 0.25 mM to 1 mM aldehyde depending on the background absorbance at 340 nm (Table 4), 10 U ScADH, and 0.25 μM purified TTA unless otherwise specified. Reactions were initiated with the addition of enzyme. […] The following controls were included for every assay: reaction mixture without aldehyde, without TTA, and without enzyme (TTA or ADH). Rates were calculated by identifying the linear region at the beginning of the kinetic run and converting the depletion in absorbance to the depletion of mM NADH using an NADH standard curve.
# We specifically selected substrates with ring substituents with different electron withdrawing properties (1, 3, 6, 7, 8), substituent size (12), and aldehyde chain length (15) to compare the activity of the putative TTAs to ObiH. We were also encouraged by the activity of PbTTA and KaTTA on vanillin and protocatechualdehyde which are substrates that would form products like commercially available therapeutic, Droxidopa (FIG. 18).
# To explore the possibility that DbTTA and TmTTA are TTAs active on other related aldehydes, we sought to examine their activity with L-Thr and aldehyde substrates with different ring substituent position (2), bulkier, hydrophobic chemistry (10), and aldehyde chain length (14) using the TTA-ADH coupled assay.
row,Molecule,"TTA activity with L-Thr and aldehydes 2, 10, 14"
1,B1,Neither of these proteins appeared to have any TTA activity
2,B2,Neither of these proteins appeared to have any TTA activity

# Same assay, conditions: purified with SUMO tag
row,Molecule,TTA activity on aromatic aldehydes
1,B3,no TTA activity

# Test system: ObiH
# Experiment: TTA-ADH coupled assay, ObiH screened on aromatic aldehyde substrates
# Format: biochemical, Pseudomonas fluorescens
# Conditions: 0.25-1 mM aldehyde, 100 mM L-Thr, 0.25 μM purified TTA, 30° C.
# Protocol: as §1
# To expand our understanding of the TTA enzyme class, we wanted a high-throughput method for rapid screening of multiple enzymes and candidate aldehyde substrates. We began by analyzing a previously reported coupled enzyme assay (FIG. 2a) based on the addition of alcohol dehydrogenase (ADH), which consumes NADH to reduce the co-product acetaldehyde in a manner that can be monitored at 340 nm. Unfortunately, this coupled assay for TTA activity suffers from false positives and confounding variables which we sought to address. […] Second, the characterized TTAs are known to catalyze the decomposition of L-Thr in the absence of an aldehyde substrate, which is an undesired reaction that also generates an acetaldehyde co-product. Another limitation of the TTA-ADH coupled assay is that many of the aromatic aldehyde candidate substrates absorb at the same measurement wavelength (Table 4). Thus, we minimized the impact of the false positives, spectral overlap, and other confounding variables by tuning enzyme and aldehyde concentrations and monitoring the undesired reactions with two controls: (1) lacking aldehyde substrate (“L-Thr”) and (2) lacking TTA (“no TTA”) where only the ADH and substrate are present. Then, we validated the TTA-ADH coupled assay by performing HPLC analysis, using the chemically synthesized β-OH-nsAA standard for the assumed product from 3, over a time course where we observed that the addition of the ScADH improves reaction rates three-fold. As previously reported by others, we were also able to improve β-OH-nsAAs yields when using the ScADH coupled to a co-factor regeneration system. As the last step of verification, we screened the TTA-ADH coupled assay with ObiH before and after photo-treatment, we observed no differences in reaction rate and continued to assay the TTAs without photo-treatment.
# Upon assay validation, we hypothesized that we could rapidly probe the activity of ObiH on diverse aldehydes to expand the potential chemical handles of β-OH-nsAAs. We successfully screened ObiH against 16 unique substrates in a single experiment (FIGS. 2b,c). […] Our screen included nine substrates not previously tested with ObiH to our knowledge; activity on seven of these substrates was confirmed with new peak formation via HPLC or LC-MS (FIGS. 3-14). The new substrates include aldehydes that contain amines, conjugatable handles, or larger hydrophobic groups to improve the chemical diversification of β-OH-nsAA products. Our result supported the known general trend that aldehydes containing electron-withdrawing ring substituents are the preferred substrates of ObiH. As expected, the amine-aldehydes were very poor substrates for ObiH, which we hypothesize is because of the strong electron-donating potential of amines. Additionally, one amine-containing substrate (5) absorbed at 340 nm, so it was only tested at low concentrations of 0.25 mM aldehyde (Table 4). […]
row,Molecule,"activity of ObiH on aldehyde substrate (initial rate, TTA-ADH coupled assay)"
1,"O=Cc1ccc2ccccc2c1 [Aldehyde 12, 2-napthalaldehyde]",some activity
2,"O=CCc1ccc([N+](=O)[O-])cc1 [Aldehyde 15, 4-nitro-phenylacetaldehyde]",validated the activity
3,"O=Cc1ccc(C=O)cc1 [Aldehyde 7, terephthalaldehyde]",activity
4,"COc1ccc(C=O)cc1 [Aldehyde 9, 4-methoxybenzaldehyde]",some activity
5,"O=Cc1ccccc1[N+](=O)[O-] [Aldehyde 3, 2-nitro-benzaldehyde]",validated the activity
6,"O=Cc1ccc(B(O)O)cc1 [Aldehyde 13, 4-boronobenzaldehyde]",activity
7,"O=Cc1ccc(-c2ccccc2)cc1 [Aldehyde 10, 4-biphenylcarboxaldehyde]",some activity

# Test system: not listed separately
# Experiment: In vitro assay over 20 h with HPLC analysis (amino acid substrate specificity, diastereomeric excess)
# Format: biochemical
# Conditions: not given
# Protocol: Metabolites of interest were quantified via high-performance liquid chromatography (HPLC) using an Agilent 1260 Infinity model equipped with a Zorbax Eclipse Plus-C18 column. To quantify aldehyde and β-OH-nsAAs, an initial mobile phase of solvent A/B=95/5 was used (solvent A, water+0.1% TFA; solvent B, acetonitrile+0.1% TFA) and maintained for 5 min. A gradient elution was performed (A/B) as follows: gradient from 95/5 to 50/50 for 5-12 min, gradient from 50/50 to 0/100 for 12-13 min, and gradient from 0/100 to 95/5 for 13-14 min. A flow rate of 1 mL min-1 was maintained, and absorption was monitored at 210, 250 and 280 nm.
# We performed an in vitro assay over 20 h using 3 as the aldehyde substrate and either L-Thr, Glycine (Gly), or L-Serine (L-Ser) as the candidate amino acid. Since the TTA-ADH coupled assay is specific to L-Thr, we analyzed TTA activity via HPLC with a chemically synthesized β-OH-nsAA standard for the assumed product from 3.
row,Molecule,β-OH-nsAA product formation from 3 and L-Thr
1,B4,active
2,B5,no product
3,B1,no product
4,B2,no product
